To fix the notation:
B1: mab006 scFv-hFc (Fc fusion, not shown: small tags and cut ends; a dimerising Fc or GST)
scFv (part 1 of 2): DVQITQSPSYLAASPGETITINCRATKSISKYLAWYQEKPGKTNKLLIFSGSTLQSGIPSRFRGSGSGTDFTLTISSLEPEDFAMYYCQQHHEYPYTFGGGTKLEIK
scFv (part 2 of 2): QVQLQQPGAELVRPGTSVKLSCKASGYTFTSYWMHWVRQRPGQGLEWIGVIDPSDSLANYNQEFKGKATLTVDTSSSTAYMQLSSLTSEDSAVYYCARDSTVVAPMDYWGQGTSVTVSS
B2: mab011 scFv-hFc (Fc fusion, not shown: small tags and cut ends; a dimerising Fc or GST)
scFv (part 1 of 2): DIVLTQSPATLSVTPGDSVSLSCRASQSISNNLHWYQQKSHESPRLLIKYASQSISGIPSRFSGSGSGTDFTLSINSVETEDFGMYFCQQSNSWPWTFGGGTKLEIK
scFv (part 2 of 2): EVQLQQSGPELVKPGASVKISCKASGYTFTDYYMNWVKQSHGKSLEWIGDISPNYGGTNYNQKFKGKATLTVDKSSSTACMELRSLTSEDSAVYYCTRSFYYYGTGYDWYFDVWGTGTTVTVSS
B3: mab014 scFv-hFc (Fc fusion, not shown: small tags and cut ends; a dimerising Fc or GST)
scFv (part 1 of 2): DIQMTQSSSSFSVSLGDRVTITCKASEDIYNRLAWYQQKPGNTPRLLISGATSLETGVPSRFSGSGSGKDFTLSITSLQTEDVATYYCQQYWSLPWTFGGGTKLEIK
scFv (part 2 of 2): EVQLHQSGPELVKPGTSVKISCKASGYTFTDYYMNWVKQSHGKSLEWIGDINPNHGDTGYNQKFTGKATLTVDKSSSTAYMELRSLTSEDSAVYYCARNFFYYGTTYGWYFDVWGTGTTVTVSS
B4: mab016 scFv-hFc (Fc fusion, not shown: small tags and cut ends; a dimerising Fc or GST)
scFv (part 1 of 2): DIVMTQSQKFMSTTIGDRVSITCKASQNVGTTVAWYQQKPGQSPNLLLYSTSNRFTGVPDRFTGSGSGTDFTLTITNMQSEDLADYFCQQYNNYPLTFGGGTKLEIK
scFv (part 2 of 2): EVNLEESGGGLVQPGGSMKLSCVASGFAFSNFWMQWVRQSPEKGLEWVAQIRLKSDNYAAHYAESVKGRFTISRDDSKSSVYLQLNNLRAEDTGTYYCTQGNWVGFAYWGQGTLVTVSA
B5: mab012 scFv-hFc (Fc fusion, not shown: small tags and cut ends; a dimerising Fc or GST)
scFv (part 1 of 2): DVLMTQTPLSLPVSLGDQASISCRSSQSIVHSDGNTYLEWYLQKPGQSPKLLIYKVSNRFSGVPDRFSGSGSGTDFTLKISRVEAEDLGFYYCFQGSHVPFTFGSGTKLEIK
scFv (part 2 of 2): QVQLQQSGPELVKPGASVKISCKASGYTFTDYYIHWVKQRPGQGLEWIGWTLPGSGSPYYNEKFKGKATLTVDKSSSTAYMLLSSLTSEDSAVYFCARWHYYYGSSYHFDYWGQGTTLTVSS
B6: mab008 scFv-hFc (Fc fusion, not shown: small tags and cut ends; a dimerising Fc or GST)
scFv (part 1 of 2): DIVMTQSQKFMSTSVGDRVSITCKASQNVGTAVAWYQQKPGQSPKLLIFSASIRYTGVPDRFTGSGSGTDFTLTISNMQSEDLADYFCQQYSSSPYTFGGGTKLEIK
scFv (part 2 of 2): EVQLQQSGPVLVKPGASVKMSCKASGYTFTDYYMNWVKRSHGKSLEWIGIINPYNGGTSYNQKFRGKATLTVDKSSNTAYMELNSLTSEDSAVYYCSRYDYDYDVEGAMDYWGQGTSVTVSS

The target in one assay is human DLL3 endogenously expressed on SHP77 and NCI-H82 cells (human) (UniProt Q9NYJ7). The assay can be described thus: FACS SHP77 cells, 4 nM.
Chain of human DLL3 endogenously expressed on SHP77 and NCI-H82 cells (human) (Q9NYJ7 27-618): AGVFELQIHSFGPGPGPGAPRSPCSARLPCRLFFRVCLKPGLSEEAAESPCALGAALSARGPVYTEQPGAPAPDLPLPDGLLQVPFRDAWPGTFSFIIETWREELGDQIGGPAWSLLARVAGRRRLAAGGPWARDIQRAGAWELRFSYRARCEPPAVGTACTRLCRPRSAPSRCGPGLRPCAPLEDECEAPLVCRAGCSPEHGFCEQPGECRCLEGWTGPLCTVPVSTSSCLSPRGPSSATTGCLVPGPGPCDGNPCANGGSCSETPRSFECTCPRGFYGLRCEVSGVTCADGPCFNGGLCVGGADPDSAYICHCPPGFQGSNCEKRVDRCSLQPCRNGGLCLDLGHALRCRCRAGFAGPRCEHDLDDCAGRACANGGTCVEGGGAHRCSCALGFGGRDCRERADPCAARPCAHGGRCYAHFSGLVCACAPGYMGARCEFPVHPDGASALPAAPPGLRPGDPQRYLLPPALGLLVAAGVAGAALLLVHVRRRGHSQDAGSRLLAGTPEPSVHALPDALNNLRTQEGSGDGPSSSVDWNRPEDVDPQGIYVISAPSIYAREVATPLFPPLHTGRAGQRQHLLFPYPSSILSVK
Regarding B1, the MFI worked out at 664 MFI.
Molecule B2 gave an MFI of 508 MFI.
The same measure, in the same setting: the same measure for B3: 681 MFI; for B4: 546 MFI.
Still for that read-out and setting: the same measure for B5: 337 MFI.
Take B6: the MFI was determined as 365 MFI.

For the next assay the target is unchanged. The assay can be described thus: FACS SHP77 cells, 20 nM.
In turn, B1 came in with an MFI of 718 MFI.
As to B2, the MFI worked out at 608 MFI.
Turning to B3, the MFI turned out to be 829 MFI.
Same read-out and setting: next, B4: 653 MFI.
Molecule B5 gave an MFI of 729 MFI.
Same read-out and setting: next, B6: 468 MFI.

Another assay shares this target. As to the kind of experiment: FACS SHP77 cells, 0.8 nM.
Regarding B1, the MFI is 643 MFI.
The same measure, in the same setting: the same measure for B2: 417 MFI; for B3: 461 MFI.
Same read-out and setting: next, B4: 502 MFI.
Consider B5, for which the MFI stood at 164 MFI.
Same read-out and setting: the same measure for B6: 208 MFI.

For another assay the target is unchanged. As to the kind of experiment: FACS SHP77 cells, 100 nM.
B1 displayed an MFI of 876 MFI.
Still for that read-out and setting: the same measure for B2: 822 MFI; for B3: 1200 MFI; for B4: 790 MFI.
Same read-out and setting: the same measure for B5: 1100 MFI; for B6: 412 MFI.

The next assay shares this target. As to the kind of experiment: FACS SHP77 cells, 0.16 nM.
Take B1: the MFI turned out to be 497 MFI.
For B2, the MFI turned out to be 239 MFI.
On the same count and under the same terms, next, B3: 237 MFI; B4: 391 MFI; B5: 110 MFI.
The same measure, in the same setting: the same measure for B6: 130 MFI.

Another assay shares this target. As to the kind of experiment: FACS SHP77 cells, 0.032 nM.
Take B1: the MFI amounted to 267 MFI.
Regarding B2, the MFI amounted to 146 MFI.
Still for that read-out and setting: next, B3: 137 MFI; B4: 202 MFI; B5: 98 MFI.
Still for that read-out and setting: the same measure for B6: 98 MFI.

A further assay shares this target. As to the kind of experiment: FACS SHP77 cells, 0.0064 nM.
B1 had an MFI of 152 MFI.
Still for that read-out and setting: next, B2: 103 MFI.
Regarding B3, the MFI came to 104 MFI.
Take B4: the MFI worked out at 121 MFI.
The molecule B5 registered an MFI of 94 MFI.
Same read-out and setting: the same measure for B6: 90 MFI.

A further assay shares this target. The assay can be described thus: FACS SHP77 cells, 0.00128 nM.
Turning to B1, the MFI is 112 MFI.
On the same count and under the same terms, next, B2: 90 MFI.
The same measure, in the same setting: the same measure for B3: 96 MFI; for B4: 96 MFI; for B5: 94 MFI.
The same measure, in the same setting: the same measure for B6: 82 MFI.

The values are drawn from patent EP4786492A1.
